Reference: US20240067728A1 (BIO THERA SOLUTIONS, published 2024)
Like-named read-outs stand apart in the source and are kept apart here.

Columns and labels:
[1] = target: T1, PD-L1 on CHO-PD-L1 cells (Promega PD-1/PD-L1 Blockade Bioassay) (UniProt Q9NZQ7 19-290, limits assumed); assay: cell-based or functional assay
[2] = target: T2, human PD-L1 on PD-L1-CHO cells (human, UniProt Q9NZQ7 19-290); assay: FACS on PD-L1-CHO cells, PE-labeled anti-human Fc secondary antibody; MFI(Mean) against Con(nM)
T2 construct: whole, on cells; also called CHO cells overexpressing human PD-L1; PD-L1 expressed on the cell surface
T2 sequence (Q9NZQ7 19-290): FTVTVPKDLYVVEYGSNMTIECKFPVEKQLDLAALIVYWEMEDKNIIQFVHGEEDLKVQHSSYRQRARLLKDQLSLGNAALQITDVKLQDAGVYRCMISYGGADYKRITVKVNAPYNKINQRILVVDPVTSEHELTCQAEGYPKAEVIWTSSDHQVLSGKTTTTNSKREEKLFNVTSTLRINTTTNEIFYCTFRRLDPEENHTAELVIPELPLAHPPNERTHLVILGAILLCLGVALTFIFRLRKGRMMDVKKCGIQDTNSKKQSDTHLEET

[3] = target: T3, PD-L1-His antigen (human, UniProt Q9NZQ7 19-238); assay: SPR (Biacore T200), PD-L1-His immobilised on chip, antibody as mobile phase, 1:1 Binding fit
T3 construct: Human PD-L1 ECD with C-terminal 8xHIS tag, expressed in HEK293F; also called hPDL1-His; human PD-L1-His
T3 sequence (Q9NZQ7 other isoform, or with tags, fused parts or gaps limits assumed): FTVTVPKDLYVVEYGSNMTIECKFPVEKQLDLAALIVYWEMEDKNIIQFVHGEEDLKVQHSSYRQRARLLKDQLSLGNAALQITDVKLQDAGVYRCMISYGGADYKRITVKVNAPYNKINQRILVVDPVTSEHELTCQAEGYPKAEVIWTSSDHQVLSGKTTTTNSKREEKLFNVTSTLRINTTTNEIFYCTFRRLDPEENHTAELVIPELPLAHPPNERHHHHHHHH

[4] = target: T1, PD-L1 on CHO-PD-L1 cells (Promega …); assay: cell-based or functional assay; remark: listed apart in the source
[5] = target: T1, PD-L1 on CHO-PD-L1 cells (Promega …); assay: cell-based or functional assay; remark: listed apart in the source
[6] = target: T2, human PD-L1 on PD-L1-CHO cells; assay: FACS on PD-L1-CHO cells, PE-labeled anti-human Fc secondary antibody; MFI(Mean) against Con(nM); remark: listed apart in the source
[7] = target: T4, CD47-His antigen (human, UniProt Q08722 19-139); assay: SPR (Biacore), method of Example 5, 1:1 Binding fit
T4 construct: Human CD47 ECD with C-terminal 8xHIS tag, expressed in HEK293F; also called hCD47-His; human CD47-His

[8] = target: T3, PD-L1-His antigen; assay: as above
[9] = target: T4, CD47-His antigen; assay: SPR (Biacore), method of Example 5, Two State Reaction fit
[10] = target: T5, human CD47 on CD47-CHO cells (human, UniProt Q08722 19-323); assay: FACS on CD47-CHO cells, PE-labeled anti-human Fc secondary antibody; MFI(Mean) against Con(nM)
T5 construct: whole, on cells; also called CHO cells overexpressing human CD47; CD47 expressed on the cell surface

[11] = target: T4, CD47-His antigen; assay: SPR (Biacore), method of Example 5; cell carries an unexplained mark ^
[12] = target: T4, CD47-His antigen; assay: SPR (Biacore), method of Example 5, 1:1 Binding fit; remark: listed apart in the source

T1 sequence (Q9NZQ7 19-290 limits assumed): as the sequence (Q9NZQ7 19-290) above

Binder | EC50 (read off the curve) [2] | EC50 (luciferase reporter, PD-1/PD-L1 blockade MOA assay; blocked partner: PD-1 on Jurkat-PD1 cells) [4] | Kd [7] | Kd [8] | Kd [9] | other results
L1-R2-4-47 (antibody, human IgG1, kappa, V domains shown) VH: EVQLVESGGGLVQPGGSLRLSCAASGFTFSDSWIHWVRQAPGKGLEWVGWISPYGGSTYYADHLSQRFTISADTSKNTAYLQMNSLRAEDTAVYYCARRHWPGGFDYWGQGTLVTVSS VL: EIVLTQSPSSLSASVGDRVTITCLASQTIGTWLAWYQQKPGKSPQLLIYAASTLQSGVPSRFSGSGSGTDFTLTISSLQPEDVATYYCQQYYSTPRTFGQGTKVEIKR | ~0.6 nM |  |  |  |  | EC50 (luciferase reporter, PD-1/PD-L1 blockade MOA assay; blocked partner: PD-1 on Jurkat-PD1 cells) [1]: 0.389 µg/mL; EC50 (read off the curve) [1]: ~2 µg/mL; Kd [3]: 0.29 nM
L1-R2-4-71 (antibody, human IgG1, kappa, V domains shown, also called parental anti-PD-L1 antibody L1-R2-4-71) VH: EVQLVESGGGLVQPGGSLRLSCAASGFTFSDSWIHWVRQAPGKGLEWVGWISPYGGSTYYADSYRSRFTISADTSKNTAYLQMNSLRAEDTAVYYCARRHWPGGFDYWGQGTLVTVSS VL: EIVLTQSPSSLSASVGDRVTITCLASQTIGTWLAWYQQKPGKSPQLLIYAASTLQSGVPSRFSGSGSGTDFTLTISSLQPEDVATYYCQQYYSTPRTFGQGTKVEIKR | ~0.6 nM | 0.292 µg/mL |  |  |  | EC50 (luciferase reporter, PD-1/PD-L1 blockade MOA assay; blocked partner: PD-1 on Jurkat-PD1 cells) [1]: 0.382 µg/mL; EC50 (read off the curve) [1]: ~2 µg/mL; EC50 (luciferase reporter, PD-1/PD-L1 blockade MOA assay; blocked partner: PD-1 on Jurkat-PD1 cells) [5]: 0.087 µg/mL; EC50 (read off the curve) [6]: ~0.2 nM; Kd [3]: 0.282 nM
BsAb-71 (bispecific antibody, human IgG1, kappa, Knob-into-hole IgG1-like bispecific with common light chain; first heavy chain is the anti-PD-L1 arm, second the anti-CD47 arm; also called anti-PD-L1/CD47 bispecific antibody BsAb-71) heavy 1: not shown heavy 2: not shown light: EIVLTQSPSSLSASVGDRVTITCLASQTIGTWLAWYQQKPGKSPQLLIYAASTLQSGVPSRFSGSGSGTDFTLTISSLQPEDVATYYCQQYYSTPRTFGQGTKVEIKRTVAAPSVFIFPPSDEQLKSGTASVVCLLNNFYPREAKVQWKVDNALQSGNSQESVTEQDSKDSTYSLSSTLTLSKADYEKHKVYACEVTHQGLSSPVTKSFNRGEC |  | 0.285 µg/mL | 27.8 nM | 0.174 nM | 3.78 nM | 
BsAb-36 (bispecific antibody, human IgG1, kappa, Knob-into-hole IgG1-like bispecific with common light chain; first heavy chain is the anti-PD-L1 arm, second the anti-CD47 arm; also called anti-PD-L1/CD47 bispecific antibody BsAb-36) heavy 1: not shown heavy 2: not shown light: EIVLTQSPSSLSASVGDRVTITCLASQTIGTWLAWYQQKPGKSPQLLIYAASTLQSGVPSRFSGSGSGTDFTLTISSLQPEDVATYYCQQYYSTPRTFGQGTKVEIKRTVAAPSVFIFPPSDEQLKSGTASVVCLLNNFYPREAKVQWKVDNALQSGNSQESVTEQDSKDSTYSLSSTLTLSKADYEKHKVYACEVTHQGLSSPVTKSFNRGEC | ~0.7 nM | 0.208 µg/mL | 28 nM | 0.352 nM | 4.49 nM | 
BsAb-46 (bispecific antibody, human IgG1, kappa, Knob-into-hole IgG1-like bispecific with common light chain; first heavy chain is the anti-PD-L1 arm, second the anti-CD47 arm; also called anti-PD-L1/CD47 bispecific antibody BsAb-46) heavy 1: not shown heavy 2: not shown light: EIVLTQSPSSLSASVGDRVTITCLASQTIGTWLAWYQQKPGKSPQLLIYAASTLQSGVPSRFSGSGSGTDFTLTISSLQPEDVATYYCQQYYSTPRTFGQGTKVEIKRTVAAPSVFIFPPSDEQLKSGTASVVCLLNNFYPREAKVQWKVDNALQSGNSQESVTEQDSKDSTYSLSSTLTLSKADYEKHKVYACEVTHQGLSSPVTKSFNRGEC | ~0.8 nM | 0.143 µg/mL | 29.1 nM | 0.371 nM | 3.95 nM | 
BsAb-47 (bispecific antibody, human IgG1, kappa, Knob-into-hole IgG1-like bispecific with common light chain; first heavy chain is the anti-PD-L1 arm, second the anti-CD47 arm; also called anti-PD-L1/CD47 bispecific antibody BsAb-47) heavy 1: not shown heavy 2: not shown light: EIVLTQSPSSLSASVGDRVTITCLASQTIGTWLAWYQQKPGKSPQLLIYAASTLQSGVPSRFSGSGSGTDFTLTISSLQPEDVATYYCQQYYSTPRTFGQGTKVEIKRTVAAPSVFIFPPSDEQLKSGTASVVCLLNNFYPREAKVQWKVDNALQSGNSQESVTEQDSKDSTYSLSSTLTLSKADYEKHKVYACEVTHQGLSSPVTKSFNRGEC | ~0.8 nM | 0.295 µg/mL | 28.4 nM | 0.223 nM | 4.77 nM | EC50 (read off the curve) [10]: ~4 nM
BsAb-71-N297A (bispecific antibody, human IgG1, kappa, N297A, BsAb-71 with the N297A mutation in the Fc region; also called anti-PD-L1/CD47 bispecific antibody BsAb-71-N297A) heavy 1: EVQLVESGGGLVQPGGSLRLSCAASGFTFSDSWIHWVRQAPGKGLEWVGWISPYGGSTYYADSYRSRFTISADTSKNTAYLQMNSLRAEDTAVYYCARRHWPGGFDYWGQGTLVTVSSASTKGPSVFPLAPSSKSTSGGTAALGCLVKDYFPEPVTVSWNSGALTSGVHTFPAVLQSSGLYSLSSVVTVPSSSLGTQTYICNVNHKPSNTKVDKKVEPKSCDKTHTCPPCPAPELLGGPSVFLFPPKPKDTLMISRTPEVTCVVVDVSHEDPEVKFNWYVDGVEVHNAKTKPREEQYASTYRVVSVLTVLHQDWLNGKEYKCKVSNKALPAPIEKTISKAKGQPREPQVYTLPPCRDELTKNQVSLWCLVKGFYPSDIAVEWESNGQPENNYKTTPPVLDSDGSFFLYSKLTVDKSRWQQGNVFSCSVMHEALHNHYTQKSLSLSPGK heavy 2: not shown light: EIVLTQSPSSLSASVGDRVTITCLASQTIGTWLAWYQQKPGKSPQLLIYAASTLQSGVPSRFSGSGSGTDFTLTISSLQPEDVATYYCQQYYSTPRTFGQGTKVEIKRTVAAPSVFIFPPSDEQLKSGTASVVCLLNNFYPREAKVQWKVDNALQSGNSQESVTEQDSKDSTYSLSSTLTLSKADYEKHKVYACEVTHQGLSSPVTKSFNRGEC |  |  |  |  |  | EC50 (luciferase reporter, PD-1/PD-L1 blockade MOA assay; blocked partner: PD-1 on Jurkat-PD1 cells) [5]: 0.164 µg/mL; EC50 (read off the curve) [6]: ~0.5 nM
47-R2-89 (antibody, human IgG1, kappa, V domains shown, Anti-CD47 monoclonal antibody, L12-6-VH with light chain R2-89) VH: QVQLQESGPGLVKPSETLSLTCTVSGGSLDNYYWSWIRQPPGKGLEWIGYIYYSGNTNYNPSLKSRVTISVDTSKNQFSLKLSSVTAADTAVYYCARGGRFLERYWGQGTLVTVSS VL: DIQMTQSPSSLSASVGDRVTITCLASQTIGTWLAWYQQKPGKSPQLLIYAASSLQSGVPSRFSGSGSGTDFTLTISSLQPEDVATYYCQQYYSTPYTFGQGTKVDIKR |  |  |  |  |  | Kd [11]: 0.361 nM
47-R2-78 (antibody, human IgG1, kappa, V domains shown, Anti-CD47 monoclonal antibody, L12-6-VH with light chain R2-78) VH: QVQLQESGPGLVKPSETLSLTCTVSGGSLDNYYWSWIRQPPGKGLEWIGYIYYSGNTNYNPSLKSRVTISVDTSKNQFSLKLSSVTAADTAVYYCARGGRFLERYWGQGTLVTVSS VL: DIQMTQSPSSFSASTGDRVTITCRASQGISSYLAWYQQKPGKAPKLLIYAASRLQSGVPSRFSGSGSGTDFTLTISSLQAEDVAVYYCQQYYSTPYTFGQGTKVDIKR |  |  |  |  |  | Kd [12]: 655 nM
47-R2-85 (antibody, human IgG1, kappa, V domains shown, Anti-CD47 monoclonal antibody, L12-6-VH with light chain R2-85) VH: QVQLQESGPGLVKPSETLSLTCTVSGGSLDNYYWSWIRQPPGKGLEWIGYIYYSGNTNYNPSLKSRVTISVDTSKNQFSLKLSSVTAADTAVYYCARGGRFLERYWGQGTLVTVSS VL: DIQMTQSPSSLSASVGDRVTIPCRASQGIGKFLAWYQQKPGKAPSLLIYAASSLQSGVPSRFSGSGSGTDFTLTISSLQTEDVAVYYCQQYFSTPYTFGQGTKVDIKR |  |  |  |  |  | Kd [12]: 275 nM
47-R2-6 (antibody, human IgG1, kappa, V domains shown, Anti-CD47 monoclonal antibody, L12-6-VH with light chain R2-6) VH: QVQLQESGPGLVKPSETLSLTCTVSGGSLDNYYWSWIRQPPGKGLEWIGYIYYSGNTNYNPSLKSRVTISVDTSKNQFSLKLSSVTAADTAVYYCARGGRFLERYWGQGTLVTVSS VL: EIVLTQSPSSVSASVGDKLTMTCQASQDIGKHLNWYQQKPGKPPKLLIYGASNLKTGVPSRFSGTGSGTDFTLTISSLQPEDFATYYCQQSYTTPYTFGQGTRLEIKR |  |  |  |  |  | Kd [12]: 1.11 nM
47-R2-18 (antibody, human IgG1, kappa, V domains shown, Anti-CD47 monoclonal antibody, L12-6-VH with light chain R2-18) VH: QVQLQESGPGLVKPSETLSLTCTVSGGSLDNYYWSWIRQPPGKGLEWIGYIYYSGNTNYNPSLKSRVTISVDTSKNQFSLKLSSVTAADTAVYYCARGGRFLERYWGQGTLVTVSS VL: EIVLTQSPSSVSASVGDRITITCRASQGIGSWLAWYQQKPGKAPSLLIYAASSLQSGVPSRFSGSGSGTDFTLTISSLQTEDVAVYYCQQYFSTPYTFGQGTKVDIKR |  |  |  |  |  | Kd [11]: 0.312 nM
